Reference: patent US20150080315A1

Columns and labels:
[1] = target: HDAC complex / nucleosome remodeling and deacetylase (NuRD) complex in SNU-398 nuclear extracts; experiment: cell-based or functional assay
[2] = target: HDAC complex / nucleosome remodeling and deacetylase (NuRD) complex in SNU-398 nuclear extracts; experiment: fluorescence polarization competition; unlabeled peptide displaces FITC-labeled wild type peptide from complexes in SNU-398 nuclear extracts

| engraftment of human AML cells treated with wild type peptide in NSG mice [1] | IC50 [2] | Molecule |
| --- | --- | --- |
| 0.5% |  | endogenous SALL4 (SNU-398 cells) (from UniProt Q9UJQ4 1-1053) |
|  | 5 µM | MSRRKQAKPQHI [wild type 12-AA SALL4 peptide (…), unlabeled] |
